Stoichiometry N data for 2 substances are collected here from publication doi:10.1101/2025.10.17.683039.

Test [1] addresses Enoyl-CoA carboxylase/reductase (ECR) from Burkholderia ambifaria (Burkholderia ambifaria). The test is described as follows: SEC; S200 column; each protein alone (1 mL) and a mixture of equal volumes (500 uL each) of the two proteins; peaks compared. A general note: In gel filtration, larger molecules generally elute earlier.
Test [2] concerns the target Enoyl-CoA carboxylase/reductase (ECR) from Mesorhizobium metallidurans (Mesorhizobium metallidurans). Description: crystal structure; apo ECR, space group C 1 2 1, 100 K, 1.40 Å, molecular replacement with PDB 6NA3.
Test [3] has the same target. The test is described as follows: SEC; S200 column; each protein alone (1 mL) and a mixture of equal volumes (500 uL each) of the two proteins; peaks compared.

By stoichiometry N is commonly meant a count of units in the complex or per binding partner.

As to “Enoyl-CoA carboxylase/reductase (ECR) from Burkholderia ambifaria (enzyme)”, in test [1], the stoichiometry N was found to be 4.

For the substance “Enoyl-CoA carboxylase/reductase (ECR) from Mesorhizobium metallidurans (enzyme)”, the stoichiometry N in test [2] and in test [3] was 2 throughout.
